Key:
[1] = Protein activity after elevated temperature exposure (Example 4); format: physicochemical
Description: A group of enzyme proteins, β-Gal and Trypsin was chosen for this study. β-Gal and Trypsin were diluted in PBS or dispersed in PFOc at 1 μM and 10 μM, respectively. Next, a subset of samples was subjected to elevated temperature condition (90 °C) well beyond their native denaturation temperature for 30 minutes. After that, samples were allowed to cool down to room temperature before retrieval. For PFOc samples, proteins were extracted into PBS before performing the ensuing assays. To determine the enzymatic activity, an equal volume of protein samples was added to their substrates dissolved in PBS (4 mg/mL ONPG for β-Gal or 1 mg/mL BAEE for Trypsin). After incubation, ONPG and BAEE substrate conversions were measured by taking absorbance using a microplate reader at 420 nm or 400 nm, respectively. In case of intrinsic fluorescence, GFP was similarly prepared, and heat treated. After GFP samples were retrieved, fluorescent intensity was taken at λex=490 nm, λem=520 nm. The change in protein activity was presented by normalizing to spectrometric readings of each protein dissolved in PBS without being subjected to heat (room temperature). […] This supports the assertion that the fluorous coating and solvent environments, together, serve to constrain the conformational flexibility of the dispersed protein and, as a result, increase its melting temperature.

[2] = Acute toxicity of β-Gal formulations in mice (Example 4); format: in vivo, C57BL/6J mice; settings: 24 h
Description: FIG. 56 depicts serologic toxicology results from C57BL/6J mice 24 hours after administration of saline (control), β-GalSaline or β-GalExt. PFOc. Data shown as box and whisker plot±s.d. of n=5 technical replicates. Statistical significance determined using Student's t-test and represented as * p<0.05; all other comparisons were found not to be significant (p>0.05).
Finally, to assess the potential for acute toxicity of the fluorous dispersant, serologic chemistry analysis and histology was performed 24 hours after treating mice with β-Gal delivered from saline or PFOc extractions. […] Reduction of this marker can indicate a transient impairment of kidney and/or liver function.

[3] = tested on: seven model proteins (Hb, GFP, BSA, β-Gal, IgG, TFN, URE); test: Fluorochemical-mediated dispersion of test proteins into perfluorohexane; format: physicochemical; settings: PFNA-mediated, protein hydrodynamic radius 3.5 nm
Text: Only the rabbit IgG Fc fragment is shown.
For PFAS amphiphiles, the combination of polar head group and fluorophilic tail additionally leads to their preferential assembly at water-fluorous interfaces. Based on these unique properties, it was speculated that PFAS compounds may noncovalently associate with proteins to mediate their phase separation into fluorous media. To test this, a screening assay was developed to qualitatively investigate the binding affinity of a library of perfluorinated chemicals with seven model proteins, which include human hemoglobin (Hb), green fluorescent protein (GFP), bovine serum albumin (BSA), (β-Galactosidase (β-Gal), rabbit serum immunoglobulin (IgG), bovine apo-transferrin (TFN), and urease (URE). This group of model proteins captures an array of physicochemical properties ranging in molecular weight, solvent accessible surface area (SASA), isoelectric point (pI), and hydrodynamic radii. A corresponding perfluorinated small molecule test set was selected to contain a plurality of functional groups, linear perfluorocarbon chain lengths, and cyclic or aromatic geometries (FIGS. 1-7). Selection of these compounds was based on their potential to form noncovalent bonds (i.e., hydrogen or ionic) with the solvent exposed protein surfaces. […] These three linear PFAS chemicals are currently regulated by the US Environmental Protection Agency based on their reproductive, immune, and hepatic toxicity (References: 44-46). In sum, the structural and biochemical diversity represented in the protein and fluorochemical libraries was rationally selected to allow structure-function-performance relationships to be ascertained from binding studies.

transferrin = transferrin (Bos taurus, UniProt Q29443); test: Circular dichroism with PFNA, transferrin; set-up: species or system bovine
Text: (§1) FIGS. 14A-14L depict circular dichroism spectra of Hb (FIG. 14A), GFP (FIG. 14B), BSA (FIG. 14C), β-Gal (FIG. 14D), rabbit serum IgG (FIG. 14E), transferrin (FIG. 14F), and urease (FIG. 14G) in the absence (black line) or presence (dashed lines) of PFNA. Increasing dash sequence indicated higher concentration of PFNA. FIG. 14H: Change in molar ellipticity at 216 nm (Δθ216) of PFNA-treated proteins, relative to native controls, as a function of increasing ligand concentration. FIG. 14I: Percentage change in secondary structural motifs of Hb, β-Gal and IgG between the native protein and 1 mM PFNA treated samples. β-sheet structures were further differentiated into parallel and antiparallel conformations. Hb, β-Gal and IgG were prioritized for analysis based on their significant spectral shift in the presence of 1 mM PFNA. FIGS. 14J-14L: Sensograms for BSA (FIG. 14J), β-gal (FIG. 14K), and IgG (FIG. 14L) showing relative response (R.U.) at 10, 25, 50, 75, and 100 μM.
To explore PFNA-mediated changes in protein structure, dose-response circular dichroism (CD) studies were performed (FIG. 14A-14G). […] Remarkably, these structural changes endured even at sub-stoichiometric PFNA:protein ratios (see 0.001 mM PFNA in […]; protein concentration was constant at 0.01 mM).

β-gal = test: Surface plasmon resonance, β-Gal; format: binding; settings: after reference correction
Text: as §1
To test this assertion, PFNA binding to three exemplary proteins, BSA, β-Gal and IgG, was studied via isothermal titration calorimetry (ITC) and surface plasmon resonance (SPR) techniques. […] SPR analysis yielded similar results, with sensorgrams (FIGS. 14J-14L) that diverged from a simple 1:1 ligand-protein model. […]

cells = test: Cellular uptake of PFNA-complexed proteins; format: cell-based
Text: Multiplexed in vitro assays were employed to probe the influence of PFNA interactions on protein uptake and transport in cells. A549 and PC9 human lung cells were prioritized for these assays given that pulmonary tissue is a primary site of perfluoroalkyl bioaccumulation in humans (Reference: 63). Before initiating experiments, cellular toxicity assays established a maximum tolerated dose of PFNA to avoid confounding protein transport experiments with substantive cell death. Protein uptake was then studied using green fluorescent protein (GFP) and bovine serum albumin (BSACy5) as model biologics that employ non-specific pinocytic mechanisms for cellular entry.

[4] = β-Gal delivered from PFOc vs saline

Chain of transferrin (Q29443 20-704): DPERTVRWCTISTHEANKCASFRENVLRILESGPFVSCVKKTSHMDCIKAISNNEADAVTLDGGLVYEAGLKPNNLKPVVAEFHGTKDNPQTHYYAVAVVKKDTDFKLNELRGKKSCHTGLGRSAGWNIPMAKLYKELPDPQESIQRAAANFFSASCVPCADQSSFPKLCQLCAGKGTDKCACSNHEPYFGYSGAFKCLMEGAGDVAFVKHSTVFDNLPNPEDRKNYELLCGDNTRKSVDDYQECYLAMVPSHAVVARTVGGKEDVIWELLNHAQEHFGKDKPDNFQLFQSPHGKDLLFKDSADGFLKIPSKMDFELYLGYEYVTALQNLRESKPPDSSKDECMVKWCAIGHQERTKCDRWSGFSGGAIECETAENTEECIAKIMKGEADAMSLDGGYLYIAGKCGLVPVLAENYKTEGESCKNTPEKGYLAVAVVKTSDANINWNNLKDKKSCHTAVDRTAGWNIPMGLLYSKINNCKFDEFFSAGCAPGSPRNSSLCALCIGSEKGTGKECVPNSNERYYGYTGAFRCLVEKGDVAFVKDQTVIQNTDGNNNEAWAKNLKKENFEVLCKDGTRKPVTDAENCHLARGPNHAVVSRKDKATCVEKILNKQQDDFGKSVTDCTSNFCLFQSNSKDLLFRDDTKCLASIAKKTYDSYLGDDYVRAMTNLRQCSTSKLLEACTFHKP

Row | Compound | change in activity after heating ([1]; PFOc dispersed, 90 °C for 30 minutes) | loss of bioactivity after heating ([1]; saline, 90 °C for 30 minutes) | histologic analysis of vital organs ([2]; kidney, liver, lung, spleen) | albumin/globulin (ALB/GLOB) ratio [2, 4] | other renal (CREA, BUN, TP) and hepatic (ALT, AST, ALKP) markers [2, 4] | protein dispersion [3] | CD structural profile, transferrin (transferrin) | SPR response (β-gal) | retention of bioactivity / function at elevated temperature ([1]; proteins dispersed into fluorous solvent using the dispersant, up to 90 °C) | cellular uptake of complexed proteins (cells)
1 | β-Gal: β-Galactosidase (β-Gal), dissolved in PBS/saline or dispersed in PFOc | no statistically significant change in activity | > 90% | did not identify pathologic signs of necrosis, cellular infiltration, inflammation, or hemorrhage | statistically significant reduction | absence of statistically significant changes | – | – | – | – | –
2 | O=C(O)C(F)(F)C(F)(F)C(F)(F)C(F)(F)C(F)(F)C(F)(F)C(F)(F)C(F)(F)F [Compound 7, perfluoronanonic acid] | – | – | – | – | – | 60% | remained largely unchanged | negative responses | structured and functional at temperatures as high as 90 °C | significantly enhanced
